# Measured values as given in patent US20220119492A1 (MEDIKINE, published 2022).
# Bridge positions count the residues as written; N and C are the ends. Ends that are not written are not given here.
# T1: human IL-2Rβ (CD122 protein, Fc Tag) (27-239) (human, UniProt P14784 27-239)
# T1 construct: range 27-239; Bought protein; also called hu-IL-2Rβ subunit; IL-2Rβ subunit; not shown: Fc tag of the bought protein
# T1 sequence (looked up): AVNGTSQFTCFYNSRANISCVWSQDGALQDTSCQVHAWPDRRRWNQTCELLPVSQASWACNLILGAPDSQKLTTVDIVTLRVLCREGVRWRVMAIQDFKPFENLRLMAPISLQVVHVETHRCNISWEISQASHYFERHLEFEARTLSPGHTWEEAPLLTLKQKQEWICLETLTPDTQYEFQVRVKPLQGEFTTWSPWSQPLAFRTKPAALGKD
# B1: SEQ ID NO 2679 (peptide)
# peptide: ETLGSVWYPCWIASIGELCDLD
# B2: SEQ ID NO 2654 (peptide)
# peptide: MLGEWLCEMDQLGYLCYLDHGD
# B3: SEQ ID NO 2650 (peptide)
# peptide: TGWWYPCWMAQLGELCDLQQT
# B4: SEQ ID NO 2680 (peptide)
# peptide: WYSCWIAQLGELCDLDDMGDRV
# B5: SEQ ID NO 2709 (peptide)
# peptide: WLPCWMADVGDLCDLD
# modifications: disulfide 4-13 (inferred)
# B6: SEQ ID NO 2707 (peptide)
# peptide: RVSYPCWLARLGELCDMDLEE
# B7: SEQ ID NO 2694 (peptide)
# peptide: ESKEPAFWPCWMAQLGDLCDLE
# B8: SEQ ID NO 2711 (peptide)
# peptide: QGTKWHWNPCWMAQLGELCDLD
# modifications: disulfide 10-19 (inferred)
# B9: SEQ ID NO 2677 (peptide)
# peptide: WYPCWLAKLGELCDLDRAEALP
# B10: SEQ ID NO 2705 (peptide)
# peptide: RSGDKAFFPCWLAQLGDLCDLD
# B11: SEQ ID NO 2683 (peptide)
# peptide: SHLWFPCWMAQLGELCDLEGGP
# B12: SEQ ID NO 2690 (peptide)
# peptide: EQRNRQWWPCWLARLGDLCDLD
# B13: SEQ ID NO 2696 (peptide)
# peptide: WHPCWLARVGDLCDLD
# B14: SEQ ID NO 2692 (peptide)
# peptide: WLPCWMAHLGDLCDLE
# B15: SEQ ID NO 2703 (peptide)
# peptide: SATWYPCFLANLGELCDLEQEN
# B16: SEQ ID NO 2700 (peptide)
# peptide: QVMRLWYPCWMAQLGELCDLE
# B17: SEQ ID NO 2685 (peptide)
# peptide: YWCWFARVGELCDLDDGGVPS
# B18: SEQ ID NO 2649 (peptide)
# peptide: QTGSYPCWIAHLGELCDLEGSA
# modifications: disulfide 7-16 (inferred)
# B19: SEQ ID NO 2676 (peptide)
# peptide: HGRWFPCWMAQVGDLCDLEHSN
# B20: SEQ ID NO 2695 (peptide)
# peptide: RSLRESWFPCWMAKLGDLCDLE
# B21: SEQ ID NO 2681 (peptide)
# peptide: WFPCWLAQLGELCDKE
# B22: SEQ ID NO 2702 (peptide)
# peptide: RDIWWPCWVAQLGELCDLDDPQ
# B23: SEQ ID NO 2706 (peptide)
# peptide: WYPCWMAQLGELCDMD
# B24: SEQ ID NO 2667 (peptide)
# peptide: WYPCWIAQLGELCDLDAKGQRR
# B25: SEQ ID NO 2655 (peptide)
# peptide: WDGWECGMDHDGWVCEFWGE
# B26: SEQ ID NO 2697 (peptide)
# peptide: SRSAGEYYPCWLAQLGELCDLA
# B27: SEQ ID NO 2671 (peptide)
# peptide: WYPCWIAHLGELCDLE
# B28: SEQ ID NO 2699 (peptide)
# peptide: WYPCWLAHLGELCDLE
# B29: SEQ ID NO 2804 (peptide)
# peptide: WYPCWMAHLGELCDLE
# B30: SEQ ID NO 2718 (peptide)
# peptide: WHPCWIAHLGELCDLE
# B31: SEQ ID NO 2725 (peptide)
# peptide: WYPCWLAHLGELCDLA
# B32: SEQ ID NO 2644 (peptide)
# peptide: SRFWQPCWMAQLGELCHLDPQM
# B33: SEQ ID NO 2693 (peptide)
# peptide: RPSWAPCWLAQVGELCDLDHPE
# B34: SEQ ID NO 2701 (peptide)
# peptide: WYPCWMAQLGELCDLDEAPVQP
# B35: SEQ ID NO 2648 (peptide)
# peptide: HPVRYPCWVAQLGELCDLENGN
# B36: SEQ ID NO 2651 (peptide)
# peptide: DLWQPCWMARLGELCDLKG
# B37: SEQ ID NO 2675 (peptide)
# peptide: FGAFYPCWKAQLGELCDLEPVT
# B38: SEQ ID NO 2682 (peptide)
# peptide: WYPCWIAQLGELCDLV
# B39: SEQ ID NO 2712 (peptide)
# peptide: KNGPKSWYPCWMAQVGDLCDLD
# B40: SEQ ID NO 2673 (peptide)
# peptide: RREWYPCWIAQVGELCDLPLI
# modifications: disulfide 7-16 (inferred)
# B41: SEQ ID NO 2674 (peptide)
# peptide: RWPWYPCEIARIGELCDLEQAN
# B42: SEQ ID NO 2686 (peptide)
# peptide: WYSCWIAQIGELCDLE
# B43: SEQ ID NO 2698 (peptide)
# peptide: RQVPKQWYPCWMAALGELCDLE
# modifications: disulfide 10-19 (inferred)
# B44: SEQ ID NO 2678 (peptide)
# peptide: VWFPCWFAQLGDLCDLDQDP
# modifications: disulfide 5-14 (inferred)
# B45: SEQ ID NO 2688 (peptide)
# peptide: HGGVIGWYPCWMAKVGELCDLD
# B46: SEQ ID NO 2669 (peptide)
# peptide: WYPCWIARVGELCDLEEGPVNR
# B47: SEQ ID NO 2710 (peptide)
# peptide: WHPCWMARLGELCDLD
# B48: SEQ ID NO 2684 (peptide)
# peptide: RRWLPCWMAHVGELCDLELGN
# B49: SEQ ID NO 2670 (peptide)
# peptide: AVEFYPCWLARIGELCDLVEP
# B50: SEQ ID NO 2668 (peptide)
# peptide: TNNFYPCWLAKLGDLCDFDDLN
# B51: SEQ ID NO 2689 (peptide)
# peptide: WYPCSIALLGELCDLESVHEKS
# B52: SEQ ID NO 2691 (peptide)
# peptide: WYPCWLAQLGELCDLD
# B53: SEQ ID NO 2885 (peptide)
# peptide: WYPCWLAQVGELCDLD
# B54: SEQ ID NO 2645 (peptide)
# peptide: YLNFNPCWTAQLGELCDLASGE
# B55: SEQ ID NO 2672 (peptide)
# peptide: WYPCWIARVGELCDME
# B56: SEQ ID NO 2884 (peptide)
# peptide: WYPCWIARVGELCDLE
# B57: SEQ ID NO 2704 (peptide)
# peptide: YAEWYPCWMARVGEVCDLEVTP
# B58: SEQ ID NO 2713 (peptide)
# peptide: SGTGPAWYPCFLASLGQLCDLE
# B59: SEQ ID NO 2708 (peptide)
# peptide: TESWYPCWLANLGDLCDLEWSA
# modifications: disulfide 7-16 (inferred)
# B60: SEQ ID NO 2687 (peptide)
# peptide: MNPVGTFYPCWIAKLGELCDLQ
# B61: SEQ ID NO 2653 (peptide)
# peptide: WYPCGVAQPGDLCDLE
# B62: SEQ ID NO 2652 (peptide)
# peptide: MGTGWQNYCRYAQLGELCLL
# B63: SEQ ID NO 2646 (peptide)
# peptide: STGWYPCWIAEFGELCDLVKPH
# B64: SEQ ID NO 2647 (peptide)
# peptide: AHWSQPCWTAQLGELCDLDMGD
# modifications: disulfide 7-16 (inferred)
# Target: T1, human IL-2Rβ (CD122 protein, Fc Tag) …
# Assay: phage ELISA competition
# In short: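 Values are IC50s derived from absorbance in a competitive binding ELISA, where a phage tracer competes with test ligands for human IL-2Rβ-Fc across a ligand dilution series. After 50 μL of phage tracer was added without washing for 45 min at 4° C, bound phage was detected with TMB for 1 to 15 min at 25° C. The reaction was then stopped and absorbance read at 450 nm.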
row,IC50,Binder
1,< 100 µM,B1
2,< 100 µM,B2
3,< 100 µM,B3
4,< 100 µM,B4
5,< 100 µM,B5
6,< 100 µM,B6
7,< 100 µM,B7
8,< 100 µM,B8
9,< 100 µM,B9
10,< 100 µM,B10
11,< 100 µM,B11
12,< 100 µM,B12
13,< 100 µM,B13
14,< 100 µM,B14
15,< 100 µM,B15
16,< 100 µM,B16
17,< 100 µM,B17
18,< 100 µM,B18
19,< 100 µM,B19
20,< 100 µM,B20
21,< 100 µM,B21
22,< 100 µM,B22

row,IC50,Binder
1,< 100 µM,B23
2,< 100 µM,B24
3,< 100 µM,B25
4,< 100 µM,B26
5,< 100 µM,B27
6,< 100 µM,B28
7,< 100 µM,B29
8,< 100 µM,B30
9,< 100 µM,B31
10,< 100 µM,B32
11,< 100 µM,B33
12,< 100 µM,B34
13,< 100 µM,B35
14,< 100 µM,B36
15,< 100 µM,B37
16,< 100 µM,B38
17,< 100 µM,B39
18,< 100 µM,B40
19,< 100 µM,B41
20,< 100 µM,B42
21,< 100 µM,B43
22,< 100 µM,B44

row,IC50,Binder
1,< 100 µM,B45
2,< 100 µM,B46
3,< 100 µM,B47
4,< 100 µM,B48
5,< 100 µM,B49
6,< 100 µM,B50
7,< 100 µM,B51
8,< 100 µM,B52
9,< 100 µM,B53
10,< 100 µM,B54
11,< 100 µM,B55
12,< 100 µM,B56
13,< 100 µM,B57
14,< 100 µM,B58
15,< 100 µM,B59
16,< 100 µM,B60
17,< 100 µM,B61
18,< 100 µM,B62
19,< 100 µM,B63
20,< 100 µM,B64
